Measured values reported in US20170260266A1 (GlaxoSmithKline, published 2017).
Values joined by “and” are separate entries in the source; they are usually repeats but may differ in a detail not shown here. Equal values may be shown once.

T1: human IL-7 (human, UniProt P13232 26-177)
T1 construct: Immobilised on a CM4 chip by primary amine coupling; also called Mature processed human IL-7
T1 sequence: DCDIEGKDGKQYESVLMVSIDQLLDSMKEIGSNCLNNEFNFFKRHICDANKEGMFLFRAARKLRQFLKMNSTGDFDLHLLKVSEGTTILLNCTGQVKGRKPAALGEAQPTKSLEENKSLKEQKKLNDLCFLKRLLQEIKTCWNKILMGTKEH


Columns and labels:
[1] = target: T2, full length (mature) human TSLP, recombinant (human, UniProt Q969D9 29-159, biotinylated in the SPR assay on the SA chip); assay: cell-based or functional assay
[2] = target: T2, full length (mature) human TSLP, …; assay: ELISA RBA, geometric mean
[3] = target: T2, full length (mature) human TSLP, …; assay: SPR, biotinylated TSLP on SA chip (Biacore 4000)
[4] = target: T2, full length (mature) human TSLP, …; assay: SPR, biotinylated TSLP on SA chip; all concentrations (footnote 1)
[5] = target: T2, full length (mature) human TSLP, …; assay: SPR, biotinylated TSLP on SA chip; value excluding 1000 nM concentration
human IL-7 = target: T1, human IL-7; assay: SPR (Biacore)
[6] = target: T2, full length (mature) human TSLP, …; assay: cell-based or functional assay; remark: listed apart in the source
[7] = target: T3, native human TSLP (supernatant from stimulated human lung fibroblasts) (human, UniProt Q969D9 29-159); assay: cell-based or functional assay
[8] = target: T2, full length (mature) human TSLP, …; assay: cell-based or functional assay; remark: listed apart in the source
[9] = target: glycosylated recombinant human TSLP expressed from HEK cells (human, UniProt Q969D9 29-159, glycosylated); assay: cell-based or functional assay
[10] = target: T2, full length (mature) human TSLP, …; assay: RBA, geometric mean (n = 2)
[11] = target: T2, full length (mature) human TSLP, …; assay: SPR with biotinylated TSLP; mean of two experiments
[12] = target: T4, short form TSLP (synthetic biotinylated 63 amino acid peptide comprising residues 69-131 of mature full … (human, biotinylated (position not given))); assay: ForteBio Octet, biotinylated sfTSLP on streptavidin tips
T4 construct: also called sfTSLP; sf TSLP

[13] = target: T2, full length (mature) human TSLP, …; assay: TSLP receptor binding assay (RBA, ELISA, OD 450 nm): dAb titrated against recombinant human TSLP (1 ng/ml); blocked is the binding of TSLP to the plate-coated TSLP receptor complex
[14] = target: T3, native human TSLP (supernatant from …); assay: TSLP receptor binding assay (RBA, ELISA, OD 450 nm): dAb titrated against native human TSLP (supernatant of stimulated human lung fibroblasts); blocked is the binding of TSLP to the plate-coated TSLP receptor complex

T4 sequence (peptide, as listed by the source): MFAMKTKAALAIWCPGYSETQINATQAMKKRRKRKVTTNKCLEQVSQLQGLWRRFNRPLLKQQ

pSTAT5 assay in SW756 cells, Geometric Mean IC50 [1] [nM] | IC50 [2] [nM] | Kd [3] [nM] | Binder | also measured
0.78 | 0.69 | 3.84 | DOM30h-440-65 (other) VL: DIQMTQSPSSLSASVGDRVTITCRASRPIRNWLDWYQQKPGKAPKLLIWGASHLQSGVPSRFSGSGSGTDFTLTISSLQPEDFATYYCMQIGEDPVTFGQGTKVEIKR | –
1.92 | 2 | 3.05 | DOM30h-440-53 (other) VL: DIQMTQSPSSLSASVGDRVTITCRASRPIRNWLDWYQQKPGKAPKLLIWGASHLQSGVPSRFSGSGSGTDFTLTISSLQPEDFATYYCLQVGEDPVTFGQGTKVEIKR | –
2.21 | 1.55 | 4.22 | DOM30h-440-63 (other) VL: DIQMTQSPSSLSASVGDRVTITCRASRPIRNWLDWYQQKPGKAPKLLIWGASHLQSGVPSRFSGSGSGTDFTLTISSLQPEDFATYYCMQIGSDPVTFGQGTKVEIKR | –
1.52 | 2.15 | 3.82 | DOM30h-440-54 (other) VL: DIQMTQSPSSLSASVGDRVTITCRASRPIRNWLDWYQQKPGKAPKLLIWGASHLQSGVPSRFSGSGSGTDFTLTISSLQPEDFATYYCWQLAFDPTTFGQGTKVEIKR | –
3.26 | 0.95 | 6.17 | DOM30h-440-64 (other) VL: DIQMTQSPSSLSASVGDRVTITCRASRPIRNWLDWYQQKPGKAPKLLIWGASHLQSGVPSRFSGSGSGTDFTLTISSLQPEDFATYYCLQIGEDPVTFGQGTKVEIKR | –
0.56 | 0.34 | – | DOM30h-440-57 (other) VL: DIQMTQSPSSLSASVGDRVTITCRASRPIRNWLDWYQQKPGKAPELLIWGASHLQSGVPSRFSGSGSGTDFTLTISSLQPEDFATYYCMQIGDDPVTFGQGTKVEIKR | Kd [4]: 3.48 nM; Kd [5]: 1.5 nM
1.1 | 0.87 | 2.78 | DOM30h-440-55 (other) VL: DIQMTQSPSSLSASVGDRVTITCRASRPIRNWLDWYQQKPGKAPKLLIWGASHLQSGVPSRFSGSGSGTDFTLTISSLQPEDFATYYCVQIGEDPVTFGQGTKVEIKR | –
0.99 | 0.56 | 2.47 | DOM30h-440-56 (other) VL: DIQMTQSPSSLSASVGDRVTITCRASRPIRNWLDWYQQKPGKAPKLLIWGASHLQSGVPSRFSGSGSGTDFTLTVSSLQPEDFATYYCMQIGEDPVTFGQGTKVEIKR | –
1.91 | 1.41 | 2.65 | DOM30h-440-58 (other) VL: DIQMTQSPSSLSASVGDRVTITCRASRPIRNWLDWYQQKPGKAPKLLIWGASHLQSGVPSRFSGSGSGTDFTLTISSLQPEDFATYYCLQIADDPVTFGQGTKVEIKR | –
0.7 | 0.32 | 0.14 | DOM30h-440-60 (other) VL: DIQMTQSPSSLSASVGDRVTITCRASRPIRNWLDWYQQKPGKAPKLLIWGASHLQSGVPSRFSGSGSGTDFTLTISSLQPEDFATYYCIQFGEDPVTFGQGTKVEIKR | –
– | – | – | DOM30h-440-81/86 (other, Vk single variable domain (dAb); DOM30h-440-55 with the C-terminal R removed (-R); also called DOM30h-440-86; TSLP dAb) VL: DIQMTQSPSSLSASVGDRVTITCRASRPIRNWLDWYQQKPGKAPKLLIWGASHLQSGVPSRFSGSGSGTDFTLTISSLQPEDFATYYCVQIGEDPVTFGQGTKVEIK | binding result (human IL-7): no binding; IL-5 production from human PBMC stimulated with a mixture of TSLP, IL-33 and IL-25, Geometric Mean IC50 [6]: 129 nM; native TSLP-induced STAT5 phosphorylation in SW756 cells, Geometric Mean IC50 [7]: 0.86 nM; Inhibition of TSLP-induced TARC in whole blood, Geometric Mean IC50 (n = 7) [8]: 2.4 nM; Inhibition of TSLP-induced pSTAT5 in SW756 cells, Geometric Mean IC50 (n = 5) [8]: 1.92 nM; Inhibition of TSLP-induced TARC in whole blood, Geometric Mean IC50 (n = 6) [9]: 3.1 nM; Inhibition of TSLP-induced pSTAT5 in SW756 cells, Geometric Mean IC50 (n = 3) [9]: 0.55 nM; IC50 [10]: 1.94 nM; Kd [11]: 0.867 nM and 0.87 nM; koff [11]: 0.000508 s⁻¹; kon [11]: 619000 M⁻¹ s⁻¹; binding result [12]: no binding; IC50 (read off the curve) [13]: ~4 nM; IC50 (read off the curve) [14]: ~0.1 nM
